Laboratory results as given in PMC9376891 (Nature Communications, 2022).

Target: SARS-CoV-2 ORF6 C3 + YP (SARS-CoV-2 | SARS-CoV)
Experiment: ITC
Conditions: both partners purified

SARS-CoV-2 ORF6 C3 + YP (SARS-CoV-2 | SARS-CoV), sequence (P52948 157-213): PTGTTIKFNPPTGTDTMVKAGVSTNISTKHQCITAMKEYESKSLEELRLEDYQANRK

B1: Rae1(31-368)-Nup98(157-213) heterodimer (complex)
chain 1: DIEVTSSPDDSIGCLSFSPPTLPGNFLIAGSWANDVRCWEVQDSGQTIPKAQQMHTGPVLDVCWSDDGSKVFTASCDKTAKMWDLSSNQAIQIAQHDAPVKTIHWIKAPNYSCVMTGSWDKTLKFWDTRSSNPMMVLQLPERCYCADVIYPMAVVATAERGLIVYQLENQPSEFRRIESPLKHQHRCVAIFKDKQNKPTGFALGSIEGRVAIHYINPPNPAKDNFTFKCHRSNGTNTSAPQDIYAVNGIAFHPVHGTLATVGSDGRFSFWDKDARTKLKTSEQLDQPISACCFNHNGNIFAYASSYDWSKGHEFYNPQKKNYIFLRNAAEELKPRNKK
chain 2: not shown
notes: also called Rae1-Nup98; Rae1-Nup98 complex
- Kd: 200 nM
